We go through two substances from paper PMC3410805, “Lipopolysaccharide impairs amyloid beta efflux from brain: altered vascular sequestration, cerebrospinal fluid reabsorption, peripheral clearance and transporter function at the blood–brain barrier” (Journal of Neuroinflammation, 2012).

A short description of data set [1]: Clearance of IV-injected I-Aβ from serum. Format: in vivo, CD-1 mice. The conditions noted are these: linear regression, n = 7–10 per group. How it is done:
All animal protocols were performed in an Association for Assessment and Accreditation of Laboratory Animal Care accredited facility and approved by the animal committee of the VA and St Louis University Medical Centers. Male CD-1 mice were purchased from Charles River and kept on a 12/12 hour light/dark cycle with food and water freely available. Mice at 6–8 weeks of age were treated with 3 intraperitoneal (IP) injections of 3 mg/kg LPS from Salmonella typhimurium (Sigma, St. Louis, MO, USA) dissolved in sterile normal saline over a 24-hour period as previously described. […]
In BSA/lactated Ringer’s solution 3 × 10^5 CPM of ^131I-Aβ and ^125I-albumin were prepared and injected together into the jugular vein of mice treated with LPS or saline. […] Blood was allowed to clot, spun at 5,000 g to separate serum from blood cells, and 50 μl serum was counted along with harvested tissues from liver and kidney in a gamma counter. The rate of I-Aβ tissue uptake was determined using multiple-time regression analysis. For this analysis, experimental clock time was re-expressed as exposure time to correct for clearance of I-Aβ from the blood. Exposure time was calculated from the formula: […]
Serum clearance was calculated by plotting the log serum CPM/50 μl versus experimental clock time. […]

The nature of data set [2]: Aβ uptake by liver and kidney, multiple-time regression analysis. Format: in vivo, CD-1 mice. The conditions noted are these: IV, mean ± SEM, n = 7–10 per group. How it is done:
All animal protocols were performed in an Association for Assessment and Accreditation of Laboratory Animal Care accredited facility and approved by the animal committee of the VA and St Louis University Medical Centers. Male CD-1 mice were purchased from Charles River and kept on a 12/12 hour light/dark cycle with food and water freely available. Mice at 6–8 weeks of age were treated with 3 intraperitoneal (IP) injections of 3 mg/kg LPS from Salmonella typhimurium (Sigma, St. Louis, MO, USA) dissolved in sterile normal saline over a 24-hour period as previously described. Briefly, the first injection was given in the morning, and the second and third injections were given at 6 and 24 hours following the first injection, respectively. All mice were studied at 28 hours following the first injection. […] No mice died as a result of this treatment regimen. A total of 225 mice were used in this study: 90 were used for detection of oxidative modifications to LRP-1 and Pgp measurement, 30 for LRP-1 measurement, 44 for measurement of Aβ and a2M vascular sequestration, 20 for CSF bulk flow measurement, 21 for measurement of peripheral Aβ clearance, and 20 for primary endothelial cell culture.
In BSA/lactated Ringer’s solution 3 × 10^5 CPM of ^131I-Aβ and ^125I-albumin were prepared and injected together into the jugular vein of mice treated with LPS or saline. The liver, the left kidney, and blood from the carotid artery were collected at 1, 2, 5, 10, and 20 minutes. Blood was allowed to clot, spun at 5,000 g to separate serum from blood cells, and 50 μl serum was counted along with harvested tissues from liver and kidney in a gamma counter. The rate of I-Aβ tissue uptake was determined using multiple-time regression analysis. For this analysis, experimental clock time was re-expressed as exposure time to correct for clearance of I-Aβ from the blood. Exposure time was calculated from the formula:
(5) Exposuretime=∫0tCpttdt/Cpt
where t equals experimental clock time, Cp represents the level of radioactivity in the serum over time and Cpt is the level of radioactivity in the serum at time t. Tissue/serum ratios were then calculated from the following formula:
(6) Tissue/serumratio=serumvolumetissueCPM/tissueweightserumCPM
To correct for alterations in vascular space and/or vascular permeability which occur with LPS administration, tissue/serum ratios for I-albumin were subtracted from those for I-Aβ. The corrected tissue/serum ratios were plotted against exposure time calculated for Aβ, and the unidirectional influx constant determined from the slope of the linear portion of the curve.

Data set [3] deals with murine BBB. As to conditions: compared with human Aβ1-42; cited from earlier work. From the text: In this study we have shown that peripheral administration of LPS inhibits CSF bulk flow, central and peripheral clearance of Aβ, and increases vascular sequestration of Aβ. […] Al ...
Setting [4] is: LPS-treated mice (3 x 3 mg/kg IP, studied at 28 h), corrected for I-albumin.

No end group written: not given here.

For the substance “I-Aβ: Murine Aβ1-42 (Bachem) radioactively labeled with 125I or 131I by the chloramine-T method (DAEFGHDSGFEVRHQKLVFFAEDVGSNKGAIIGLMVGGVVIA; also: 125I or 131I radiolabel, residue not given here; UniProt P12023 672-713, looked up)”, the half-life in serum in data set [1] (LPS-treated mice (3 x 3 mg/kg IP at 0, 6, 24 h, studied at 28 h), IV injection, serum at 1-20 min) is 8.4 min; in data set [1] (saline-treated mice, IV (jugular vein) injection, serum at 1, 2, 5, 10, 20 min, log serum CPM/50 μl vs time) it was 4 min. Besides, the “unidirectional influx rate of Aβ into kidney (Ki)” value was 0.5608 ± 3.859 µL/g/min in data set [2] (setting [4]) and 41.26 ± 10.46 µL/g/min in data set [2] (saline-treated mice, corrected for I-albumin). Further, the “unidirectional influx rate of Aβ into liver (Ki)” value in data set [2] (setting [4]) turned out to be 8.356 ± 6.433 µL/g/min; in data set [2] (saline-treated mice, tissue/serum ratio corrected for I-albumin vs exposure time) it was 34.67 ± 3.444 µL/g/min.

In the case of “murine Aβ1-42: Murine amyloid beta 1-42 purchased from Bachem (DAEFGHDSGFEVRHQKLVFFAEDVGSNKGAIIGLMVGGVVIA; Amyloid-beta protein 42; UniProt P12023 672-713, looked up)”, the “rate of clearance across the murine BBB” value in data set [3] is “cleared at a faster rate across the murine BBB than human Aβ1-42”.
